From patent publication US20250027068
Residue numbers refer to the chain shown, from its start.

Target: pooled human IgG

B1: PRT-565 (protein)
chain: MANQEIRYSEATPSHITSVWTKGVTPPTQFIQNEDVLHAPYIANQGWYDITKTFNGKDDLLCGAATAGNMLHWWFDQNKEQIENYLKKHPEKQKINFNGEQMFDVKEAIDTKDSQTDSALFSYFKDKAFPYLSTKHLGVFPDHVIDMFINGYRLSLTNHGPTPVKRQTKDPRGGIFDAVFTRGDQSKLLTSRHDFKEKTLNEISQLIKQELTEGKALGLSHTYANVRINHVINLWGADFNAEGNLEAIYVTDSDSNASIGMKKYYVGVNSAGKVAISAKEIEGDNIGAQVLGLFTLSTGQDIWQQTNLEHHHHHH
- Enzyme Activity Endpoint Assay (purified): Fab′2: 783 ng/µL
- Enzyme Activity Endpoint Assay (purified): Fc: 471 ng/µL
- Enzyme Activity Endpoint Assay (purified): IgG: 0 ng/µL
- Enzyme Activity Endpoint Assay (purified): scIgG: 0 ng/µL

B2: PRT-671 (protein)
chain: MQITTVWTKGVTPPTPEQFRNNNEDVFHAPYLPHQGWYDITKAFDGKDNLLCGAATAGNMLHWWFDQNKEEIEAYLKKYPEKQKIIFNNQELFDLRKAINTKDSQTNSQLFNYFRDKAFPNLSARQLGVMPDHVLDMFINGYYLNVFKTQSTDVNRPYQTRDKRGGIFDAVFNRGDQTTLLTERHDLYNKGLDDISTLIKQELSSGKALGLSHTYANVSISHVINLWGADFNAEGNLEAIYVTDSDDDASIGMKKYYVGKNASGHVRISAKKIEGENIGAQVLGLFTLSTGKDIWQKLSLEHHHHHH
- Enzyme Activity Endpoint Assay (purified): Fab′2: 97 ng/µL
- Enzyme Activity Endpoint Assay (purified): Fc: 294 ng/µL
- Enzyme Activity Endpoint Assay (purified): IgG: 244 ng/µL
- Enzyme Activity Endpoint Assay (purified): scIgG: 864 ng/µL

B3: PRT-65 (protein)
chain: MANQEIRYSEVTPYHVTSVWTKGVTPPANFTQGEDVFHAPYVANQGWYDITKTFNGKDDLLCGAATAGNMLHWWFDQNKDQIKRYLEEHPEKQKINFNGEQMFDVKEAIDTKNHQLDSKLFEYFKEKAFPYLSTKHLGVFPDLVIDMFINGYRLSLTNHGPTPVKEGSKDPRGGIFDAVFTRGDQSKLLTSRHDFKEKNLKEISDLIKKELTEGKALGLSHTYANVRINHVINLWGADFDSNGNLKAIYVTDSDSNASIGMKKYFVGVNSAGKVAISAKEIKEDNIGAQVLGLFTLSTGQDSWNQTN
- Enzyme Activity Endpoint Assay (purified): Fab′2: 35 ng/µL
- Enzyme Activity Endpoint Assay (purified): Fc: 100 ng/µL
- Enzyme Activity Endpoint Assay (purified): IgG: 26 ng/µL
- Enzyme Activity Endpoint Assay (purified): scIgG: 34 ng/µL

B4: PRT-668 (protein)
chain: MQITSVWTKGVTPLTPEQFRYNNYDVFHAPYLAGQGWYDITKAFDGKDNLLCGAATAGNMLHWWFDQNKTEIEAYLSKYPEKQKIIFNNQELFDLRKAINTKDSQTNSELFNYFRDKAFPNLSARQLGVMPDLVLDMFINGYYLNVFKTQSTDVNRPYQDKDKRGGIFDAVFNRGDQTKLLTARHDLKNKGLNDISTLIKQELSSGRALALSHTTANVSISHVINLWGADFNAEGNLEAIYVTDSDDDSNIGMKKYKVGINASGHVAISAKKIEGENIGAQVLGLFTLSSGKDIWQKLSLEHHHHHH
- Enzyme Activity Endpoint Assay (purified): Fab′2: 563 ng/µL
- Enzyme Activity Endpoint Assay (purified): Fc: 0 ng/µL
- Enzyme Activity Endpoint Assay (purified): IgG: 1070 ng/µL
- Enzyme Activity Endpoint Assay (purified): scIgG: 14 ng/µL

B5: PRT-655 (protein)
chain: MQITSVWTKGVTPLTPEQFRYNNEDVIHAPYLAHQGWYDITKAFDGKDNLLCGAATAGNMLHWWFDQNKTEIEAYLSKHPEKQKIIFNNQELFDLKAAIDTKDSQTNSQLFNYFRDKAFPNLSARQLGVMPDLVLDMFINGYYLNVFKTQSTDVNRPYQDKDKRGGIFDAVFTRGDQTTLLTARHDLKNKGLNDISTIIKQELTEGRALALSHKTGNGGSSHVINLWGADFNAEGNLEAIYVTDSDANASIGMKKYFVGINAHGHVAISAKKIEGEDVGAQVLGLFTLSSGKDIWQKLSLEHHHHHH
- Enzyme Activity Endpoint Assay (purified): Fab′2: 471 ng/µL
- Enzyme Activity Endpoint Assay (purified): Fc: 0 ng/µL
- Enzyme Activity Endpoint Assay (purified): IgG: 1380 ng/µL
- Enzyme Activity Endpoint Assay (purified): scIgG: 15 ng/µL

B6: PRT-550 (protein)
chain: MANQEIRYSEETPKTITSIWTKGVTPPTDFIKNEDVLHAPYIANQGWYDITKTFNGKDDLLCGAATAGNMLHWWFDQNKEEIENYLKKHPEKQKINFNGEQMFDVKEAIDTKDSQTDSKLFEYFKDKAFPYLSTKHLGVFPDHVIDMFINGYRLSLTNHGPTPVKRGTKDPRGGIFDAVFTRGDQSKLLTARHDFKEKTLNEISDLIKQELTEGKALGLSHTYANVRINHVINLWGADFNSEGNLEAIYVTDSDSNASIGMKKYYVGVNAAGKVAISAKEIEGDNIGAQVLGLFTLSTGQDIWNQTNLEHHHHHH
- Enzyme Activity Endpoint Assay (purified): Fab′2: 891 ng/µL
- Enzyme Activity Endpoint Assay (purified): Fc: 389 ng/µL
- Enzyme Activity Endpoint Assay (purified): IgG: 0 ng/µL
- Enzyme Activity Endpoint Assay (purified): scIgG: 0 ng/µL

B7: PRT-532 (protein)
chain: B6 chain with F140M, H143L, I145L, R153Y, T157G, N158K, G218A
- Enzyme Activity Endpoint Assay (purified): Fab′2: 409 ng/µL
- Enzyme Activity Endpoint Assay (purified): Fc: 118 ng/µL
- Enzyme Activity Endpoint Assay (purified): IgG: 506 ng/µL
- Enzyme Activity Endpoint Assay (purified): scIgG: 217 ng/µL

B8: PRT-627 (protein)
chain: MQITSVWTKGVTPLTPEQFRYNNEDVIHAPYLAHQGWYDITKAFDGKDNLLCGAATAGNMLHWWFDQNKEEIEAYLKKYGETQKIIFNNQELFDLKAAIDTKDSQTNSQLFNYFRDKAFPNLSARQLGVMPDLVLDMFINGYYLNVFKTQSTDVNRPYQDKDKRGGIFDAVFTRGDQTTLLTARHDLKNKGLNDISTIIKQELTEGRALALSHTYANVSISHVINLWGADFNAEGNLEAIYVTDSDANASIGMKKYFVGINAHGHVAISAKKIEGENIGAQVLGLFTLSSGKDIWQKLSLEHHHHHH
- Enzyme Activity Endpoint Assay (purified): Fab′2: 767 ng/µL
- Enzyme Activity Endpoint Assay (purified): Fc: 415 ng/µL
- Enzyme Activity Endpoint Assay (purified): IgG: 124 ng/µL
- Enzyme Activity Endpoint Assay (purified): scIgG: 187 ng/µL

B9: PRT-606 (protein)
chain: B8 chain with E70T, K77S, G80P, E81D, T82K, D293E
- Enzyme Activity Endpoint Assay (purified): Fab′2: 737 ng/µL
- Enzyme Activity Endpoint Assay (purified): Fc: 406 ng/µL
- Enzyme Activity Endpoint Assay (purified): IgG: 0 ng/µL
- Enzyme Activity Endpoint Assay (purified): scIgG: 0 ng/µL

B10: PRT-612 (protein)
chain: B8 chain with E70T, K77S, Y79H, G80P, T82K, K96R, D100N, T101S
- Enzyme Activity Endpoint Assay (purified): Fab′2: 986 ng/µL
- Enzyme Activity Endpoint Assay (purified): Fc: 533 ng/µL
- Enzyme Activity Endpoint Assay (purified): IgG: 0 ng/µL
- Enzyme Activity Endpoint Assay (purified): scIgG: 0 ng/µL

B11: PRT-639 (protein)
chain: B8 chain with A43T, D45N, N49D, E70T, K77S, Y79H, G80P, T82K, N248D
- Enzyme Activity Endpoint Assay (purified): Fab′2: 788 ng/µL
- Enzyme Activity Endpoint Assay (purified): Fc: 450 ng/µL
- Enzyme Activity Endpoint Assay (purified): IgG: 0 ng/µL
- Enzyme Activity Endpoint Assay (purified): scIgG: 0 ng/µL

B12: PRT-607 (protein)
chain: B8 chain with K9Y, T12K, A33E, E70T, K77S, Y79H, G80P, T82K
- Enzyme Activity Endpoint Assay (purified): Fab′2: 779 ng/µL
- Enzyme Activity Endpoint Assay (purified): Fc: 470 ng/µL
- Enzyme Activity Endpoint Assay (purified): IgG: 0 ng/µL
- Enzyme Activity Endpoint Assay (purified): scIgG: 0 ng/µL

B13: PRT-622 (protein)
chain: MQITSVWTKGVTPLTPEQFRYNNEDVIHAPYLAHQGWYDITKAFDGKDNLLCGAATAGNMLHWWFDQNKTEIEAYLSKHPEKQKIIFNNQELFDLKAAIDTKDSQTNSQLFNYFRDKAFPNLSARQLGVMPDLVLDMFINGYYLNVFKTQSTDVNRPYQDKDKRGGIFDAVFTRGDQTTLLTARHDLKNKTLKEISDIIKQELQSGRALALSHTYANVSISHVINLWGADFNSEGNLIAIYVTDSDANASIGMKKYFVGINAHGHVAISAKKIEGENIGAQVLGLFTLSSGKDIWQKLSLEHHHHHH
- Enzyme Activity Endpoint Assay (purified): Fab′2: 823 ng/µL
- Enzyme Activity Endpoint Assay (purified): Fc: 423 ng/µL
- Enzyme Activity Endpoint Assay (purified): IgG: 0 ng/µL
- Enzyme Activity Endpoint Assay (purified): scIgG: 0 ng/µL

B14: PRT-666 (protein)
chain: MQITSVWTKGVTPPTPEQFRNNNEDVFHAPYLANQGWYDITKTFNGKDDLLCGAATAGNMLHWWFDQNKTEIEAYLKKHPEKQKIIFNNQELFDLKKAIDTKDSQTNSQLFNYFRDKAFPNLSARQLGVMPDLVLDMFINGYYLNVTKTQSTDVNRPYQDKDKRGGIFDAVFTRGDQTTLLTSRHDLKNKGLNEISDLIKQELTEGKALALSHTYANVSINHVINLWGADFNAEGNLEAIYVTDSDSNASIGMKKYFVGVNASGKVAISAKKIEGENIGAQVLGLFTLSSGKDIWQKLSLEHHHHHH
- Enzyme Activity Endpoint Assay (purified): Fab′2: 897 ng/µL
- Enzyme Activity Endpoint Assay (purified): Fc: 132 ng/µL
- Enzyme Activity Endpoint Assay (purified): IgG: 66 ng/µL
- Enzyme Activity Endpoint Assay (purified): scIgG: 0 ng/µL
